From patent publication US20120121557A1

Molecular target: ErbB4 on primary adult rat ventricular cardiomyocytes (rat) (UniProt Q62956)
Assay: cell-based or functional assay

Chain of UniProt Q62956 (Q62956 26-1308): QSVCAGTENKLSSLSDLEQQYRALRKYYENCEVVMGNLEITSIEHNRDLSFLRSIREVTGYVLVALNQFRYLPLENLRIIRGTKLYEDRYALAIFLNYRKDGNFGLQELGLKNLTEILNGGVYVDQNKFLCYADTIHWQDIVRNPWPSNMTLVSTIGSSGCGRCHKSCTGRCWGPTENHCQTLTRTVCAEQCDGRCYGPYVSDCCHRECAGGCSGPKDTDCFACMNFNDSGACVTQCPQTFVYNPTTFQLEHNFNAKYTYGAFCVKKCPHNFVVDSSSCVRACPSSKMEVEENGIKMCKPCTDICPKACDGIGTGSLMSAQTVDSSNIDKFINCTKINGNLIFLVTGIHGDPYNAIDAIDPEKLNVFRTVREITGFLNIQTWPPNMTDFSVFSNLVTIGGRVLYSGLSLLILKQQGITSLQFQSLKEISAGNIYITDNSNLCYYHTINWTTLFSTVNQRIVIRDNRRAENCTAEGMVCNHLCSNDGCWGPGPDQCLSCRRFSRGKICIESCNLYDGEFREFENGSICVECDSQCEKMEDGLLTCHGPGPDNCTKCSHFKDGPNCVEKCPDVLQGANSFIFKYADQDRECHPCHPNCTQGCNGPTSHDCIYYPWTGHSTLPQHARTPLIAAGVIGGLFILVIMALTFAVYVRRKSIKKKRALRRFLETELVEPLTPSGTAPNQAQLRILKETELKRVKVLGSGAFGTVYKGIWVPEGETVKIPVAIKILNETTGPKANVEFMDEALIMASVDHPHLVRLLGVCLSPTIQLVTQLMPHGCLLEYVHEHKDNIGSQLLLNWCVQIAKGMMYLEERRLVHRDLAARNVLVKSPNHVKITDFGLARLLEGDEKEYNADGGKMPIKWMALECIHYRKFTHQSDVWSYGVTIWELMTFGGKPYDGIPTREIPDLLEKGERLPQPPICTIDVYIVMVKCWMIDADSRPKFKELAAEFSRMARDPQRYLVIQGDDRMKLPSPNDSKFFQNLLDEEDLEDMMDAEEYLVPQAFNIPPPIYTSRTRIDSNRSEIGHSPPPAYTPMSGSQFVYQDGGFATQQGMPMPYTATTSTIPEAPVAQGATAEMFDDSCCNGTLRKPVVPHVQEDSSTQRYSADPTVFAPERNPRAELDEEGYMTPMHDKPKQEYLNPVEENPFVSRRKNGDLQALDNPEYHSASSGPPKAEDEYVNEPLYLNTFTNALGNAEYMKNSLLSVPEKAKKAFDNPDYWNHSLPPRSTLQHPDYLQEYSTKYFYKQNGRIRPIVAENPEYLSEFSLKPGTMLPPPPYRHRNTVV

half-maximal stimulation EC50 of NRG1-induced DNA synthesis (BrdU uptake) in primary adult rat ventricular cardiomyocytes: 0.04 nM
Substance: NRG1 (EGF-like domain, amino acids 176-246), R&D Systems (from UniProt Q02297-11 121-191) (ligand)
